Patent US20220213165A1 (University of Texas, published 2022)
Square brackets hold non-standard residues; d marks the D form. Ends that are not written are not given here.

T1: recombinant human EphB4 (rhEphB4) (human, UniProt P54760 16-539, limits assumed)
T1 construct: Bought protein; also called purified EphB4; immobilized EphB4
T1 sequence (looked up): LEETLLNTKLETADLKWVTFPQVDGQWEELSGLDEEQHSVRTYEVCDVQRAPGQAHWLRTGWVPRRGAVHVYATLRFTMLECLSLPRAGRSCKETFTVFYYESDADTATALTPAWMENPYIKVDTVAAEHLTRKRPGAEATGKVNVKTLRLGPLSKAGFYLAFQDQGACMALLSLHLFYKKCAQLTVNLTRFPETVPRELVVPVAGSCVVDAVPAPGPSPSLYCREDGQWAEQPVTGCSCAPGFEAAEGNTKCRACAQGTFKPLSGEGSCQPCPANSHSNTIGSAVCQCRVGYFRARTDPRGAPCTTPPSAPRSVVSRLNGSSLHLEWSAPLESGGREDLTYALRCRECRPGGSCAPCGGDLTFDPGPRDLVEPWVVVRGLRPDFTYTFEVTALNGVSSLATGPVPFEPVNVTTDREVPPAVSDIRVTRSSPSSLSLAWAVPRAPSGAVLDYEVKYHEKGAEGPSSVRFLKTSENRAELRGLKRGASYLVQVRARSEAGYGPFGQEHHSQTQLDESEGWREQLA

T2: EphB4 on the surface of A2780cp20 cells (human, UniProt P54760 16-987)
T2 construct: whole, on cells; also called EphB4 in human HeyA8 ovarian cancer cells; EphB4 in human ovarian cancer cells A2780cp20
T2 sequence (looked up): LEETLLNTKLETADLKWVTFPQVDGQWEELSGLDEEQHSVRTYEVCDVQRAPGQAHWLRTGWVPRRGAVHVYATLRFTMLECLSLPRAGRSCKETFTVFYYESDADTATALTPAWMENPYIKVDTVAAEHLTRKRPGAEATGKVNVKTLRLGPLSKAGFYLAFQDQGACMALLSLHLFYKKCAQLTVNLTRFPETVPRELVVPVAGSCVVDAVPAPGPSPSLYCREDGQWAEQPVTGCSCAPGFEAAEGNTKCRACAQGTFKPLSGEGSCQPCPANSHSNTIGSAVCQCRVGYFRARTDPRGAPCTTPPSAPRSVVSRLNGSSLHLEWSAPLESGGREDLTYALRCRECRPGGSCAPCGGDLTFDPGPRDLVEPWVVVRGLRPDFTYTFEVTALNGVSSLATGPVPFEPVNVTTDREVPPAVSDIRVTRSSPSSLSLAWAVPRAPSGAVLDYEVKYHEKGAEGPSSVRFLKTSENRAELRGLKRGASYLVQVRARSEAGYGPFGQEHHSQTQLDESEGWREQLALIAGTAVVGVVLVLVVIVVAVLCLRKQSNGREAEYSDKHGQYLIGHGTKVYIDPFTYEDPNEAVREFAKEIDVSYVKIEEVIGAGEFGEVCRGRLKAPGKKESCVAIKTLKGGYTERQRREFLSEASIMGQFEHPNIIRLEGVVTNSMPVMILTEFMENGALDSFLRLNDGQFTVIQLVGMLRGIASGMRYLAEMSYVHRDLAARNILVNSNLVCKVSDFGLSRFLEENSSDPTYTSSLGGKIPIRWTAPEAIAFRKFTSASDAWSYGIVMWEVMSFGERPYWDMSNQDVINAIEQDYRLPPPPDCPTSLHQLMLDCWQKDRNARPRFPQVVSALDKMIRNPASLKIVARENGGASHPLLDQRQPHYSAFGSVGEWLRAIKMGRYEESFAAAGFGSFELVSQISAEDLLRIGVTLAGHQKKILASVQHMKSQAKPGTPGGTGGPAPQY

B1: B4-001, Cyclo(KTNYLFSPNGPIARAWD) (peptide)
peptide: KTNYLFSPNGPIARAWD
modifications: not fully specified (bridges); printed as Cyclo(KTNYLFSPNGPIARAWD); also: cyclic, ring-closing atoms not given here
B2: TNYL-RAW (peptide)
peptide: TNYLFSPNGPIARAW
notes: also called EphB4 antagonist TNYL-RAW peptide
B3: BIDEN-AP (bi-directional ephrin agonist peptide), TN(dY)LFSPNGPIARAW (peptide)
peptide: TN[dY]LFSPNGPIARAW
notes: Synthetic 15-mer made by solid phase synthesis on Rink resin; also called EphB4 agonist peptide
B4: NYLFSPNGPIARAW (peptide)
peptide: NYLFSPNGPIARAW
notes: also called TNYL-RAW truncated of N-terminus Thr-P1
B5: B4-008, TNYLFSPNGPIARA (peptide)
peptide: TNYLFSPNGPIARA
notes: also called TNYL-RAW truncated of C-terminus Trp-P15
B6: TNYLFSPNGPIAR (peptide)
peptide: TNYLFSPNGPIAR
notes: also called TNYL-RAW truncated of C-terminus Ala-Trp (P14-P15)
B7: YLFSPNGPIARAW (peptide)
peptide: YLFSPNGPIARAW
notes: also called TNYL-RAW truncated of N-terminus Thr-Asn (P1-P2)

Columns and labels:
[1] = molecular target: T1, recombinant human EphB4 (rhEphB4); experiment: SPR (BIACore), peptide 1.6-800 nM injected over immobilized rhEphB4
Procedure: Peptides in concentrations of 1.6 nM to 800 nM were injected over the rhEphB4 sensor chips, and the magnitude of peptide binding to immobilized EphB4 in response units (RU) was recorded.
(§1) Surface plasmon resonance (SPR) binding and competition assays. A stock solution of EphB4 in PBS (100 μg/mL) was diluted to 25 μg/mL with 10 mM sodium acetate buffer (pH 4.5) and immobilized to CM5 sensor chips using the amine coupling reaction according to manufacturer-provided procedures (BIACore). Briefly, the surfaces of the chips in flow cells (FC)-1 and FC-2 were activated by exposing chips to a mixture of 200 mM N-ethyl-N′-dimethylaminopropyl carbodiimide and 50 mM N-hydroxysuccinimide for 7 min. FC-1 was used as a reference surface and was directly deactivated by injecting 1 M ethanolamine at pH 8.5 for 7 min. FC-2 was injected with 25 μg/mL human or murine EphB4 followed by injection of 1 M ethanolamine to block the remaining activated ester groups on the surface. The chips were allowed to stabilize for at least 2 h in HBSEP running buffer before injection of test analytes.

[2] = molecular target: T1, recombinant human EphB4 (rhEphB4); experiment: SPR, peptide over immobilized EphB4
[3] = molecular target: T1, recombinant human EphB4 (rhEphB4); experiment: SPR, peptide over immobilized EphB4, 1:1 mass transfer interaction model
Procedure: as §1

[4] = molecular target: T1, recombinant human EphB4 (rhEphB4); experiment: SPR competition: BIDEN-AP (2-1000 nM) mixed with human EphB4 (30 nM), injected on EFNB2-Fc-coated CM5 chip
[5] = molecular target: T2, EphB4 on the surface of A2780cp20 cells; experiment: flow cytometry competition: A2780cp20 cells with EFNB2-Fc (20 nM) and BIDEN-AP (0-100 µM), PE-labeled anti-Fc detection
Procedure: D-Tyr-P3 is highlighted in red. […] Vertical axes, in response units (RU), represent binding of the peptide to immobilized EphB4. […] Individual duplicates were performed in each condition. Data are presented as mean±SD.
Cell-based binding assay. […] Cells were analyzed in a Cellquest fluorocytometer (BD Bioscience, San Jose, Calif.). The experiments were run in duplicate.

[6] = molecular target: T1, recombinant human EphB4 (rhEphB4); experiment: SPR (BIACore), peptide 1.6-800 nM injected over immobilized rhEphB4; remark: listed apart in the source
Procedure: FIG. 10: BIACore sensorgrams of binding of truncated peptides to immobilized rhEphB4. Retention of a peptide on a sensor chip was indicated by a change in response units (RU) over the course of the 180-s injection interval followed by a 210-s washing interval. Peptides in concentrations of 1.6 nM to 800 nM were injected over the rhEphB4 sensor chip, and the magnitude of peptide binding to immobilized EphB4 was recorded.
as §1

Binder	Kd [1]	Kd [2]	further results
TNYLFSPNGPIAR[dA]W (also called TNYL-RAW with D-Ala at P14) [TNYLFSPNGPIAR(dA)W]	43 nM		
B1		4.4 nM	
B2		3.1 nM	
TNYLFSPNGPIARA[dW] (also called TNYL-RAW with D-Trp at P15) [TNYLFSPNGPIARA(dW)]	8 nM		
TNYL[dF]SPNGPIARAW [B4-005, TNYL(dF)SPNGPIARAW]	841 nM	75 nM	
B3			Kd [3]: 7 nM; IC50 [4]: 4 nM; IC50 [5]: ~1000 nM
T[dN]YLFSPNGPIARAW (also called TNYL-RAW with D-Asn at P2) [T(dN)YLFSPNGPIARAW]	5 nM		
TNYLFSPNGPIARAW (D-Arg at position 13) [B4-002, TNYLFSPNGPIA(dR)AW]		39 nM	
B4			Kd [6]: 4.2 nM
TNY[dL]FSPNGPIARAW [B4-004, TNY(dL)FSPNGPIARAW]		65 nM	
B5		13 nM	Kd [6]: 60 nM
B6			Kd [6]: 192 nM
B7			Kd [6]: 5.2 nM
TNYLF[dS]PNGPIARAW [B4-006, TNYLF(dS)PNGPIARAW]	7700 nM		
